Data reported in patent US20230338589A1.

How the values were obtained:
[1] = target: T1, interferon gamma (IFN-γ), murine, recombinant (mouse) (UniProt P01580); assay: Octet (BLI) analysis of binding affinity; format not stated
T1 sequence (looked up): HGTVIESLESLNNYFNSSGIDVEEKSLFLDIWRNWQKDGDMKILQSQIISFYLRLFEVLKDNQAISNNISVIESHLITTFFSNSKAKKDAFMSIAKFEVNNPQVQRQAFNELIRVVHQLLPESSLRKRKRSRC

[2] = target: T1, interferon gamma (IFN-γ), murine, recombinant (mouse); assay: radioligand cell assay: TUBO cells preincubated with recombinant IFN-γ (10 ng/mL), washed, then incubated with tracer 1 h at 37 C; acid-wash fraction read by gamma counter; background without IFN-γ 1.13 ± 0.28%
[3] = target: T1, interferon gamma (IFN-γ), murine, recombinant (mouse); assay: cell-based or functional assay

Kd [1] [nM] | surface binding (% of activity) [2] [%] | internalization (% internalized activity) in TUBO cells preincubated with IFN-γ [3] [%] | Molecule
37.9 | – | – | anti-IFN-γ diabody (homodimer of the single chain Fv derived from clone AN18, produced in CHO cells)
– | 13.6 | 3.93 | ^89Zr-anti-IFN-γ labeled-antibody conjugate (AN-18 conjugated to p-SCN-Bn-desferrioxamine and labeled with ^89Zr) (antibody, rat IgG1, V domains shown, p-SCN-Bn-Desferrioxamine (DFO) conjugated to the antibody (Ab:DFO 1:5), chelating ^89Zr; sites not stated) VH: QVQLKESGPGLVQPSQTLSLTCTVSGFSLDSYNVHWVRQPPGKGLEWMGRMKYNGDTSYNSALKSRLRISRDTSKNQVFLKMNSLQTDDTGTYYCTRDWHYGYPSPYFEFWGQGVMVTVSS VL: DVQMTQSPSYLAASPGESVSISCKASKNINTYLAWYQEKPGKTNKLLIYSGSTLQSGTPSRFSGSGSGTDFTLTIRSLEPEDFAVYYCQQHNEYPLTFGSGTKLEVKR
